± gives the standard deviation of the averaged measurements.
system: Saccharomyces cerevisiae; assay: protein stability index of tFT-peptide fusion (C-terminal peptide) (PSI (0-1 scale)); higher = more stable (slower turnover); settings: genetic background: wild type; temperature: 30 C
Description: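 Multiplexed protein stability (MPS) profiling in S. cerevisiae. Random 12-aa peptides (tFT-X12 library) are fused to the C-terminus of a sfGFP-mCherry tandem fluorescent timer, after mCherry and a GGGS linker. Cells are FACS-sorted into 8 mCherry/sfGFP bins and deep-sequenced. The protein stability index (PSI) is the read-weighted bin average, scaled from 0 (unstable) to 1 (stable). Only peptides with >10 reads are reported; cells were grown at 30 °C in SC-His with glucose.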
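Also: PSI is a weighted mean of sequencing reads over stability bins, variants kept only with over 10 reads, mCherry proximal and sfGFP distal, peptide attached via GGGS linker.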

Sequence | protein stability index
SPTPLLPLASSP | 0.695 ± 0.052
LILEKHEMIGRR | 0.681 ± 0.026
AKLVESISEVAT | 0.6766 ± 0.0052
SPPLLPGVLSES | 0.645 ± 0.055
ENHPATICGFYR | 0.767 ± 0.087
MGVHKQQMRGQR | 0.682 ± 0.036
VVGAHLWSGFSA | 0.711 ± 0.013
RNAGYPALDELS | 0.6861 ± 0.0047
PLALSPNPLSRT | 0.679 ± 0.045
RIEIVDVQFLWE | 0.7 ± 0.048
LWISVDEGQLCH | 0.617 ± 0.042
YPHQRGRPDAHH | 0.71 ± 0.021
PRPVRAVEMLTL | 0.715 ± 0.029
NNRKKKGRRRQE | 0.674 ± 0.042
GEDGCGGSEAGG | 0.656 ± 0.028
FRHPGSAGPPVA | 0.713 ± 0.011
ARSVHGSLSLVM | 0.633 ± 0.042
PCLLTNLPILPT | 0.626 ± 0.077
GSGQPDPRDAIG | 0.677 ± 0.057
ARGPCRGSGSFG | 0.631 ± 0.044
PPAPLHLPSLPR | 0.705 ± 0.018
APLFASSASIPL | 0.716 ± 0.11
LAGSHSRTQGRT | 0.695 ± 0.037
GVVVKDPGNAFL | 0.704 ± 0.029
SFSFPFFFWGLL | 0.592 ± 0.0061

Sequence | protein stability index
KKVKMIKEIRRG | 0.745 ± 0.044
AVGTYFSPVVLL | 0.65 ± 0.016
YACFRYEYNRLR | 0.679 ± 0.029
FAPAWQTRLGCP | 0.7514 ± 0.0026
KEWKSESTVLEV | 0.7468 ± 0.0054
DLAPLSFVHLLL | 0.596 ± 0.037
CLCPPPPLPVPR | 0.699 ± 0.092
NVTCRPDKNELT | 0.643 ± 0.035
VYYRRFTGGGLY | 0.583 ± 0.016
RPPFRVYDYPLL | 0.671 ± 0.039
GSSPRVFPPRFC | 0.725 ± 0.033
KKTKNKKRIIRT | 0.724 ± 0.051
VSPFSILLPVPL | 0.608 ± 0.017
FFFLPILKSPSR | 0.714 ± 0.058
GFSTCCLFWLTV | 0.529 ± 0.029
RLPLASPPHSSP | 0.675 ± 0.056
AGGVESGGRSGV | 0.679 ± 0.02
AARCSPSQEDSF | 0.697 ± 0.12
SPGLQPVACPSF | 0.639 ± 0.019
PPPTPTFPVPPH | 0.6021 ± 0.00058
TLALQFPFKLLF | 0.653 ± 0.025
VKPIFTEYGRYK | 0.626 ± 0.002
FVIAGDLYGLYV | 0.658 ± 0.045
EVLAVKLYSGIA | 0.648 ± 0.044
PPICLCHDPAAH | 0.659 ± 0.013

Sequence | protein stability index
VGLLCVGAGFWG | 0.652 ± 0.014
ICYGIHYAQRGS | 0.646 ± 0.069
WVLSYVPEIGRL | 0.741 ± 0.035
PPPSTGGTRSNV | 0.6809 ± 0.0051
VRESLGANACSR | 0.69 ± 0.058
GSCTPLPSIDFD | 0.648 ± 0.052
LAGLNDSVRRAV | 0.749 ± 0.036
GGTPGSYDIIGV | 0.728 ± 0.016
EISKVRGAVDRK | 0.689 ± 0.033
SQLEPNNVQVTT | 0.68 ± 0.0069
PPPHRPPPRPPR | 0.697 ± 0.0094
GCSACLVSSLAG | 0.63129 ± 4e-05
TSWGSRWLPYAS | 0.665 ± 0.025
STKVEIKKRDSR | 0.715 ± 0.18
PPPLATPTPTRP | 0.688 ± 0.17
CFHIFRKSNMNN | 0.726 ± 0.11
PPQPTTPFPSPQ | 0.6788 ± 0.0063
VLSSARKEVIIG | 0.643 ± 0.03
TLGLLPDVCVEL | 0.683 ± 0.021
FTVSPFIFLFSP | 0.653 ± 0.0074
VLSLLVLLLSLP | 0.614 ± 0.017
DIKKRQNIKDRK | 0.686 ± 0.051
FPILLASRPSSP | 0.662 ± 0.046
RASGSFPSLVFS | 0.734 ± 0.12
IWGSILGVEANV | 0.685 ± 0.039

Sequence | protein stability index
LPTLPLPHRHHL | 0.742 ± 0.0072
SCRVSFLFFLFE | 0.562 ± 0.016
VVFASNGSYVLG | 0.672 ± 0.041
GHIQDSLSPDPH | 0.613 ± 0.013
RPPRPGFCLFLP | 0.652 ± 0.0067
PPPPPLLLPPPA | 0.651 ± 0.038
SCLYPTQILART | 0.631 ± 0.017
KRQWAGRDGEGR | 0.662 ± 0.0068
PYPPPPRLLVSP | 0.7359 ± 0.0056
EKKKSKGRRKLM | 0.705 ± 0.081
EVCGSGCGCGLC | 0.74 ± 0.11
PLWVFFRFSPNL | 0.662 ± 0.01
PLPPPPAPPLPP | 0.647 ± 0.024
WTRFSEKIVILR | 0.582 ± 0.026
NCTHKKKTLTPN | 0.726 ± 0.012
QKKKILNKQRTK | 0.681 ± 0.033
RTWGGKKHKKRK | 0.716 ± 0.014
AILFSASLTLLL | 0.598 ± 0.012
VAMAGQQLYVTI | 0.665 ± 0.07
GSLGWRGLVRFF | 0.611 ± 0.013
YIRSYRITKREE | 0.656 ± 0.035
WACYRLGCGGSW | 0.774 ± 0.041
VTGSGVGGSPEC | 0.683 ± 0.042
GDRGGLARAGGA | 0.753 ± 0.065
PQSSGVSPIPPP | 0.77 ± 0.078

Sequence | protein stability index
CGHVRSLAMAHN | 0.68 ± 0.019
QPPPPRLPPRPP | 0.622 ± 0.0027
YSRYAASYSMVV | 0.688 ± 0.021
TEHLLTRGRRNT | 0.64 ± 0.032
FFLPSLFSVLSF | 0.53 ± 0.04
VSAPTHVSRVTQ | 0.649 ± 0.0088
TTGGRGSRGGGR | 0.723 ± 0.039
RLVSPPPLPHRP | 0.688 ± 0.0062
GRVEDAFSGGGI | 0.643 ± 0.089
AGHGGWREAGGG | 0.685 ± 0.0076
CGWCCVVCSCLV | 0.602 ± 0.06
PPGPPRPFPSHL | 0.785 ± 0.16
ALVQWRVGGCGG | 0.709 ± 0.085
FLPFFFCLPSSL | 0.628 ± 0.014
SKKLRRNKYRNG | 0.6871 ± 0.0039
LRPPLPPPCPPP | 0.599 ± 0.12
DGGRPFQKLYVA | 0.663 ± 0.014
GLTWLVLGFPGS | 0.757 ± 0.052
SPPPPPPPPFPL | 0.672 ± 0.033
QIKARVRRDLTL | 0.692 ± 0.096
YFLLLLLNSSTP | 0.528 ± 0.042
SPTLNRSLPVPS | 0.654 ± 0.045
AEFSGVVIGRWW | 0.718 ± 0.054
PPLCPPLPFLHP | 0.885 ± 0.11
SFNVFKINSITV | 0.562 ± 0.019

Sequence | protein stability index
RRGRGGSGGSAP | 0.734 ± 0.053
ILGIESLVAGLL | 0.697 ± 0.062
GTPWHLRPRCPF | 0.749 ± 0.013
PPPPRPSSPLIL | 0.741 ± 0.021
QCNTFNKEKPER | 0.694 ± 0.021
KEKRFTQKLIRA | 0.654 ± 0.095
FCCSYLSRGDFL | 0.702 ± 0.023
SPVGRRTLPSGF | 0.692 ± 0.023
DACPLAEGGGAA | 0.717 ± 0.035
PAPSYHPVSPTA | 0.713 ± 0.0096
VGCGGRGGRRGW | 0.599 ± 0.019
AGGSVCRESLEV | 0.694 ± 0.064
FRSFALFGNSFL | 0.704 ± 0.0053
FRAPYWCSRVFG | 0.715 ± 0.095
YTKTGRQRHHCR | 0.677 ± 0.011
PPPPPTLPSCLS | 0.689 ± 0.063
GGGGFLGVVGVG | 0.58 ± 0.01
PSSPPPPPLSPL | 0.664 ± 0.017
TPSSDFKPTGVR | 0.654 ± 0.054
PPPPPLHSSPWL | 0.737 ± 0.14
WRLAVDLGRFCT | 0.617 ± 0.16
IEGEVRKIGNPT | 0.681 ± 0.086
LLCGVLGLAWVW | 0.553 ± 0.029
LRSGRCFFVARL | 0.73 ± 0.068
KNCKEQRKTIQI | 0.713 ± 0.026

Sequence | protein stability index
TLFSNILRSPHS | 0.696 ± 0.035
PPSPPPPALSSS | 0.665 ± 0.056
LFLSLSGSYRCI | 0.532 ± 0.079
SGRSQERMYARW | 0.656 ± 0.012
PPPSHYHSQGHN | 0.686 ± 0.016
LPPPSPPPPLSP | 0.621 ± 0.01
VRAGFRAWGVSE | 0.572 ± 0.2
PSSTSPPPPPPP | 0.695 ± 0.025
SSTLPVYLSTTL | 0.662 ± 0.023
GRYSGSFWSFWS | 0.719 ± 0.023
IGSRRMDADERV | 0.691 ± 0.026
TPNLHPPSAATP | 0.668 ± 0.038
PPQRHTTPTSWG | 0.75862 ± 0.00034
RIEKNTKRSEIW | 0.665 ± 0.021
TTPPPPPRHPAP | 0.696 ± 0.019
QSAFLFGFMSFW | 0.62 ± 0.025
GVRGGRGQGWYR | 0.6373 ± 0.0018
QFCYSNPVSRYG | 0.6899 ± 0.004
FFSWFGCSCYAR | 0.779 ± 0.023
WGVGVCSRVLRS | 0.674 ± 0.026
PPPPPSSPPALL | 0.663 ± 0.058
VFLSCPCLFFWV | 0.56 ± 0.022
LRSPPPPAQPFV | 0.69 ± 0.0075
PPPHPPPPPLPS | 0.635 ± 0.021
AHLPHSSFSWRP | 0.707 ± 0.05

Sequence | protein stability index
RKYEKEKYKKMI | 0.566 ± 0.013
ILFIKQKYLIKK | 0.6878 ± 0.003
KTKRMKSIKKSK | 0.7099 ± 0.0046
RRFAKVALLSLR | 0.644 ± 0.12
GWCPNRRSGVWV | 0.7285 ± 0.0032
FLGFPVVGVFGS | 0.735 ± 0.031
CSAESASPAERY | 0.6541 ± 0.0013
WWSAHIRAGASL | 0.672 ± 0.017
ILRSVIFMDACV | 0.629 ± 0.018
RPLSSSFRTVPS | 0.721 ± 0.037
LSPSLPLPNPSP | 0.729 ± 0.044
AWGELGAGVFGL | 0.68 ± 0.049
SVALSSPSRYCS | 0.7137 ± 0.00077
PSVPLAGFVCRA | 0.587 ± 0.11
FNPPPLLLPPPP | 0.639 ± 0.013
SVNWVWNSVFDR | 0.6826 ± 0.0024
QNLEDDLSIAGS | 0.703 ± 0.02
RKCHCPGGGRRI | 0.7171 ± 0.00079
PSRLPSPPPPPP | 0.721 ± 0.073
GFVLSFADLLGV | 0.653 ± 0.054
SRGMERIWEFGR | 0.612 ± 0.036

Source: the supplement of paper PMC10724198
